From the RNAGym collection of RNA variant scans (doi:10.1093/nar/gkz1192)

B1: CPEB3 Ribozyme (parent)
chain: UAACAGGGGGCCACAGCAGAAGCGUUCACGUCGCAGCCCCUGUCAGAUUCUGGUGAAUCUGCGAAUUCUGCUGUAUAUCUC

Variants of: B1
Assay: self-cleavage, relative activity (ratio to wild type); higher = more cleavage; in vitro, sequencing
Method in brief: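 After error-prone PCR and barcoding, CPEB3 ribozyme mutant libraries were transcribed with T7 RNA polymerase at 37°C for 5 hours, then given 15 min with DNase I before an EDTA stop, and they cleaved during both steps. Reverse transcription with template switching preceded Illumina sequencing. Relative activity divides a variant's cleaved/total read fraction by the unmutated ribozyme's. At least 5 reads were required per variant, and three batches were averaged.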

Variant | self-cleavage
UUACAGGGGGCCACAGCAGAAGCGUUCACGUCGCAGCCCCUGUCAGAUUCUGGUGAAUCUGCGAAAUCUGCUGUAUAUCUC | 0.52
UUACAGGGGGCCACAGCAGAAGCGUUCACGUCGCAGCCCCUGUCAGAUUCUGGUGAAUCUGCGAACUCUGCUGUAUAUCUC | 0.38
UUACAGGGGGCCACAGCAGAAGCGUUCACGUCGCAGCCCCUGUCAGAUUCUCGUGAAUCUGCGAAUUCUGCUGUAUAUCUC | 1.04
UUACAGGGGGCCACAGCAGAAGCGUUCACGUCGCAGCCCCUGUCAGAUUCUGGUGAAUCUGCGAAUUCUGCUGUAUAUCAC | 1.14
UUACAGGGGGCCACAGCAGAAGCGUUCACGUCGCAGCCCCUGUCAGAUUCUGGUGAAUCUGCGAAUUCUGCUGUAUAUCCC | 1.09
UUACAGGGGGCCACAGCAGAAGCGUUCACGUCGCAGCCCCUGUCAGAUUCUGGUGAAUCUGCGAAUUCUGCUGUAUAUCGC | 1.06
UUACAGGGGGCCACAGCAGAAGCGUUCACGUCGCAGCCCCUAUCAGAUUCUGGUGAAUCUGCGAAUUCUGCUGUAUAUCUC | 0.43
UUACAGGGGGCCACAGCAGAAGCGUUCACGUCGCAACCCCUGUCAGAUUCUGGUGAAUCUGCGAAUUCUGCUGUAUAUCUC | 0.29
UUACAGGGGGCCACAGCAAAAGCGUUCACGUCGCAGCCCCUGUCAGAUUCUGGUGAAUCUGCGAAUUCUGCUGUAUAUCUC | 0.29
UUACAGGGGGCCACAGCAGAAGCGUUCACGUCGCAGCCCCUGCCAGAUUCUGGUGAAUCUGCGAAUUCUGCUGUAUAUCUC | 0.47
UUACAGGGGGCCACAGCAGAAGCGUUCACGUCGCAGCCCCUGACAGAUUCUGGUGAAUCUGCGAAUUCUGCUGUAUAUCUC | 1.05
UUACAGGGGGCCACAGCAGAAGCGUUCACGUCGCAGCCCUUGUCAGAUUCUGGUGAAUCUGCGAAUUCUGCUGUAUAUCUC | 0.89
UUACAGGGGGCCACAGCAGAAGCGUUCACGUCGCAGCCCGUGUCAGAUUCUGGUGAAUCUGCGAAUUCUGCUGUAUAUCUC | 0.31
UUACAGGGGGCCACAGCAGAAGUGUUCACGUCGCAGCCCCUGUCAGAUUCUGGUGAAUCUGCGAAUUCUGCUGUAUAUCUC | 0.35
UUACAGGGCGCCACAGCAGAAGCGUUCACGUCGCAGCCCCUGUCAGAUUCUGGUGAAUCUGCGAAUUCUGCUGUAUAUCUC | 0.45
UUACAGGGAGCCACAGCAGAAGCGUUCACGUCGCAGCCCCUGUCAGAUUCUGGUGAAUCUGCGAAUUCUGCUGUAUAUCUC | 0.15
UUACAGGGGGCCACAGCAGAAGCGUUCACGUCGCAGCCCCUGUCAGAUUCUGGUGAAUCUGCGAAUUCUGCUGUAAAUCUC | 1.14
UUACAGGGGGCCACAGCAGAAGCGUUCACGUCGCAGCCCCUGUCAGAUUCUGGUGAAUCUGCGAAUUCUGCUGUACAUCUC | 1.15
UUACAAGGGGCCACAGCAGAAGCGUUCACGUCGCAGCCCCUGUCAGAUUCUGGUGAAUCUGCGAAUUCUGCUGUAUAUCUC | 0.66
UUACAGGGGGCCACAGCAGAAGCAUUCACGUCGCAGCCCCUGUCAGAUUCUGGUGAAUCUGCGAAUUCUGCUGUAUAUCUC | 0.3
UUACAGGGGGCCACAGCAGAAGCUUUCACGUCGCAGCCCCUGUCAGAUUCUGGUGAAUCUGCGAAUUCUGCUGUAUAUCUC | 0.34
UUACAGGGGGCCACAGCAGAAGCGUUCACGUCGCAGCCCCUGUAAGAUUCUGGUGAAUCUGCGAAUUCUGCUGUAUAUCUC | 0.24
UUACAGGGGGCCACAGCAGAAGCGUUCACGUCUCAGCCCCUGUCAGAUUCUGGUGAAUCUGCGAAUUCUGCUGUAUAUCUC | 0.32

Variant | self-cleavage
UUACAGGGGGCCACAGCAGAAGCGUUCACGUCGCAGCCCCUGUCAGAUUCGGGUGAAUCUGCGAAUUCUGCUGUAUAUCUC | 1.17
UUACAGGGGGCCACAGCAGAAGCGUUCACGUCGCAGCCCCUGUCAGAUUCAGGUGAAUCUGCGAAUUCUGCUGUAUAUCUC | 1.17
UUACAGGGGGCCACAGCAGAAGCGUUCACGUCGCAGCCCCUGUCAGAUUCCGGUGAAUCUGCGAAUUCUGCUGUAUAUCUC | 1.07
UUACAGGGGGCCACAGCAGAAGCGUUCACGUCGCAGACCCUGUCAGAUUCUGGUGAAUCUGCGAAUUCUGCUGUAUAUCUC | 0.16
UUACAGGGGGCCACAACAGAAGCGUUCACGUCGCAGCCCCUGUCAGAUUCUGGUGAAUCUGCGAAUUCUGCUGUAUAUCUC | 0.18
UUACAGGGGGCCACAGCAGAAGCGAUCACGUCGCAGCCCCUGUCAGAUUCUGGUGAAUCUGCGAAUUCUGCUGUAUAUCUC | 0.09
UUACAGGGGGCCACAGCAGAAGCGCUCACGUCGCAGCCCCUGUCAGAUUCUGGUGAAUCUGCGAAUUCUGCUGUAUAUCUC | 0.37
UUACAGGGGGCCACAGCAGAAGCGUUCACGUCGUAGCCCCUGUCAGAUUCUGGUGAAUCUGCGAAUUCUGCUGUAUAUCUC | 0.24
UUACAGGUGGCCACAGCAGAAGCGUUCACGUCGCAGCCCCUGUCAGAUUCUGGUGAAUCUGCGAAUUCUGCUGUAUAUCUC | 0.28
UUACAGGAGGCCACAGCAGAAGCGUUCACGUCGCAGCCCCUGUCAGAUUCUGGUGAAUCUGCGAAUUCUGCUGUAUAUCUC | 0.27
UUACAGGGGGCCACAGCAGAAGCGUUCACGUCGCAGCCCCUGUCAGAUUCUGGUGAAUCUGCGAAUUCUGCCGUAUAUCUC | 1.11
UUACAGGGGGCCACAGCAGAAGCGUUCACGUCGCAGCCCCUGUCAGAUUCUGGUGAAUCUGCGAAUUCUGCAGUAUAUCUC | 0.67
UUACAGGGGGCCACAGCAGAAGCGUUCACGUCGCAGCCCCUGUCAGAUUCUGGUGAAUCAGCGAAUUCUGCUGUAUAUCUC | 0.56
UUACAGGGGGCCACAGCAGAAGCGUUCACGUCGCAGCCCCUGUCAGAUUCUGGUGAAUCCGCGAAUUCUGCUGUAUAUCUC | 0.47
UUACAGGGGGCCACAGCAGAAGCGUUCACGUCGCAGCCCCUGUCAGAUUCUGGCGAAUCUGCGAAUUCUGCUGUAUAUCUC | 1.13
UUACAGGGGGCCACAGCAGAAGCGUUCACGUCGCAGCCCCUGUCAGAUUCUGGGGAAUCUGCGAAUUCUGCUGUAUAUCUC | 0.77
UUACAGGGGGCCACAGCAGAAGCGUUCACGUCGCAGCCCCUGUCAGAUUCUGGAGAAUCUGCGAAUUCUGCUGUAUAUCUC | 1.15
UUACAGGGGGCCACAGCAGAAGCGUUCACGUCGCAGCCCCUGUCAGAUUCUGGUGAAUCUGCGAAUUCAGCUGUAUAUCUC | 0.52
UUACAGGGGGCCACAGCAGAAGCGUUCACGUCGCAGCCCCCGUCAGAUUCUGGUGAAUCUGCGAAUUCUGCUGUAUAUCUC | 1.07
UUACAGGGGGCCACAGCAGAAGCGUUCACGUCGCAGCCCCAGUCAGAUUCUGGUGAAUCUGCGAAUUCUGCUGUAUAUCUC | 0.25
UUACAGGGGGCCACAGUAGAAGCGUUCACGUCGCAGCCCCUGUCAGAUUCUGGUGAAUCUGCGAAUUCUGCUGUAUAUCUC | 0.31
UUAUAGGGGGCCACAGCAGAAGCGUUCACGUCGCAGCCCCUGUCAGAUUCUGGUGAAUCUGCGAAUUCUGCUGUAUAUCUC | 1.15
UUACAGGGGGCCACAGCAGAAGCGUUCACGUCGCAGCCCCUGUCAGAUUCUGGUGAAUCUGCGAAUUCUGCUGUAUACCUC | 0.87

Variant | self-cleavage
UUACAGGGGGCCACAGCAGAAGCGUUCACGUCGCAGCCCCUGUCAGAUUCUGGUGAACCUGCGAAUUCUGCUGUAUAUCUC | 0.42
UUACAGGGGGCCACAGCAGAAGCGUUCACGUCGCAGCCCCUGUCAGAUUCUGGUGAAACUGCGAAUUCUGCUGUAUAUCUC | 0.35
UUACAGGGGGCCACAGCAGAAGCGUUCACGUCGCAGCCCCUGUCAGAUUCUGGUGAAUCUGCGAAUUCUGCUGCAUAUCUC | 0.91
UUACAGGGGGCCACAGCAGAAGCGUUCACGUCGCAGCCCCUGUCAGAUUCUGGUGAAUCUGCGAAUUCUCCUGUAUAUCUC | 0.31
UUACAGGGGGCCACAGCAGAAGCGUUCACGUCGCAGCCCCUGUCAGACUCUGGUGAAUCUGCGAAUUCUGCUGUAUAUCUC | 0.62
UUACAGGGGGCCACAGCAGAAGCGUUCACGUCGCAGCCCCUGUCAGAUUCUGGUGAAUCUGCGAAUACUGCUGUAUAUCUC | 0.49
UUACAGGGGGCCACAGCAGAAGCGUUCACGUCGCAGCCCCUGUCAGAUUCUGGUGAAUCUGCGAAUCCUGCUGUAUAUCUC | 0.39
UUACAGGGGGCCACAGCAGAAACGUUCACGUCGCAGCCCCUGUCAGAUUCUGGUGAAUCUGCGAAUUCUGCUGUAUAUCUC | 0.22
UUACAGGGGGCCACAGCAGAAGCGUUCACGACGCAGCCCCUGUCAGAUUCUGGUGAAUCUGCGAAUUCUGCUGUAUAUCUC | 0.48
UUACAGGGGGCCACAGCAGAAGCGUUCACGCCGCAGCCCCUGUCAGAUUCUGGUGAAUCUGCGAAUUCUGCUGUAUAUCUC | 0.81
UUACAGGGGGCCACAGCAGAAGCGUUCACGUCGCAGCCCCUGUCAGAUACUGGUGAAUCUGCGAAUUCUGCUGUAUAUCUC | 0.72
UUACAGGGGGCCACAGCAGAAGCGUACACGUCGCAGCCCCUGUCAGAUUCUGGUGAAUCUGCGAAUUCUGCUGUAUAUCUC | 0.87
UUACAGGGGGCCACAGCAGAAGCGUCCACGUCGCAGCCCCUGUCAGAUUCUGGUGAAUCUGCGAAUUCUGCUGUAUAUCUC | 0.55
UUACAGGGGGCCACAGCAGAAGCGUGCACGUCGCAGCCCCUGUCAGAUUCUGGUGAAUCUGCGAAUUCUGCUGUAUAUCUC | 0.5
UUACAGGGGUCCACAGCAGAAGCGUUCACGUCGCAGCCCCUGUCAGAUUCUGGUGAAUCUGCGAAUUCUGCUGUAUAUCUC | 0.29
UUACAGGGGACCACAGCAGAAGCGUUCACGUCGCAGCCCCUGUCAGAUUCUGGUGAAUCUGCGAAUUCUGCUGUAUAUCUC | 0.26
UUACAGGGGGCCACAGCAGAAGCGUUCACGUCGCAGCCACUGUCAGAUUCUGGUGAAUCUGCGAAUUCUGCUGUAUAUCUC | 0.42
UUACAGGGGGCGACAGCAGAAGCGUUCACGUCGCAGCCCCUGUCAGAUUCUGGUGAAUCUGCGAAUUCUGCUGUAUAUCUC | 0.19
UUACAGGGGGCUACAGCAGAAGCGUUCACGUCGCAGCCCCUGUCAGAUUCUGGUGAAUCUGCGAAUUCUGCUGUAUAUCUC | 1.18
UUACAGGGGGCCACAGCAGAAGCGUUCACGUCGCAGCCCCUGUCAGAUUCUGGUGAAUCUGUGAAUUCUGCUGUAUAUCUC | 0.31
UUACAGGGGGCCACAGCAGAAGCGUUCACGUCGCAGCCCCUGUCAGAUUCUGGUGAAUCUGGGAAUUCUGCUGUAUAUCUC | 0.31
UUACAGGGGGCCACAGCAGAAGCGUUCACGUCGCAGCCCCUGUCAGAUUUUGGUGAAUCUGCGAAUUCUGCUGUAUAUCUC | 0.79
